Consider 3 substances from PMC4637274.

The term stoichiometry N denotes the number of molecules, sites or subunits per partner or assembly.

The target in test [1] is 16055 gp140 NFL2P (HIV-1 (16055)). The experiment in a line: negative-stain EM of unliganded trimers.
Test [2] has as its target JRFL gp140 NFL2P (HIV-1 (JRFL)). Description: SEC + native gel or EMSA. On the technique in general: In EMSA bound probe runs differently from free probe, usually more slowly.
The target is the same in test [3]. Description: negative-stain EM of unliganded trimers.
The target in test [4] is BG505 gp140 NFL2P (HIV-1 (BG505)). Description: SEC + native gel or EMSA.
Test [5] shares this target. Description: negative-stain EM of unliganded trimers.

In turn, 16055 gp140 NFL2P displayed a stoichiometry N in test [1] of 3.
Turning to JRFL gp140 NFL2P, the stoichiometry N in test [2] and in test [3] was 3 in each case.
Take BG505 gp140 NFL2P: the stoichiometry N in test [4] and in test [5] was 3 throughout.
